Ten molecules from patent US20250034239A1 (LINNO PHARMACEUTICALS, published 2025) can be followed below.

Assay [1] concerns the target T1, human transferrin (Sigma T3309) (human, UniProt P02787 20-698).
T1 construct: mature; same polypeptide; also called native human transferrin; hTf
In words: flow cytometry on HEK293F-hTfR1 cells with human transferrin, pH 6.0; grade by % binding (+++ ≥ 15%). On the procedure:
(§1) HEK293F-hTfR1 cells were prepared by transfecting hTfR1-expressing plasmid, with a GFP tag, into HEK293F cells. Stable pool was used for this assay. Briefly, the engineered HEK293F cells expressing hTfR1 were cultured with OPM-293 CD05 medium at 37° C., with 8% CO₂ and saturated humidity in cell shaker. […] The cells were washed twice by centrifugation at 300 g for 5 min at 4° C., before rabbit anti-OVA antibodies and a secondary anti-rabbit IgG-AF647 (all prepared in blocking buffer). The cells were scanned with CytoFLEX (Beckman).

Assay [2] concerns the target T1, human transferrin (Sigma T3309). The experiment in a line: flow cytometry on HEK293F-hTfR1 cells with human transferrin, pH 7.4; grade by % binding (+++ ≥ 15%). On the procedure: as §1
The target in assay [3] is T2, human transferrin receptor 1 on HEK293F-hTfR1 cells (human, UniProt P02786 1-760).
T2 construct: whole, on cells
T2 sequence (P02786 whole entry): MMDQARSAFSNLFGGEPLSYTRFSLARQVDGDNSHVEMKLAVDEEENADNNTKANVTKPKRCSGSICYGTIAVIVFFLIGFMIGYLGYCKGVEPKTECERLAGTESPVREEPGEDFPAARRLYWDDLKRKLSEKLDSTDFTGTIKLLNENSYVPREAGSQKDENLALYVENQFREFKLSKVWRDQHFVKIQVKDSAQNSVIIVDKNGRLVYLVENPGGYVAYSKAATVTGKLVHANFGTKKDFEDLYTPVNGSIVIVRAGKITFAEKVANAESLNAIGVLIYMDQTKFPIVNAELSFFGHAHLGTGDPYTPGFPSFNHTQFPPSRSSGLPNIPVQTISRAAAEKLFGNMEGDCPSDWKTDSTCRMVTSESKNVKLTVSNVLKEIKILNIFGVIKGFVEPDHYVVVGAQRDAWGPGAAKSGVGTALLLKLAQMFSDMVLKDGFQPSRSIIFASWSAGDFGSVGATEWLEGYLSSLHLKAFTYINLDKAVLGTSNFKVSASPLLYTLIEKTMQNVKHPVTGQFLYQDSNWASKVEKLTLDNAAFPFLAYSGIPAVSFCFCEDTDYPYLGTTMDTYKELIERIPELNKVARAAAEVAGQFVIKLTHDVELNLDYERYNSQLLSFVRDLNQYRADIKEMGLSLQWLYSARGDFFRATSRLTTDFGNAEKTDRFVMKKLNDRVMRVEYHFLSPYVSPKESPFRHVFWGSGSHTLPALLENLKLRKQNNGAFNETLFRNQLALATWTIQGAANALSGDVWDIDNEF
In words: flow cytometry on HEK293F-hTfR1 cells with or without transferrin. On the procedure: as §1

Assay [4] deals with T3, human VEGFA121 (human, UniProt P15692-9 27-147, biotinylated).
T3 construct: Biotinylated; also called hVEGFA121; hVEGFA121-biotin
T3 sequence (looked up): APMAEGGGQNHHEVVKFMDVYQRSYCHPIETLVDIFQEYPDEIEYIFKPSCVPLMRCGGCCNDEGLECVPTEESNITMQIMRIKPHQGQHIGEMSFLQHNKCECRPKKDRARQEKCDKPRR
In words: target-binding ELISA on hVEGFA121, humanized VHH-Fc. On the procedure: For binding ELISA, immunoplates were coated with 100 μl/well 1 μg/ml streptavidin and incubate at 4° C. overnight. Wells were washed with PBST for 3 times and blocked with 200 μl of 1% BSA/PBS at RT for 1 hr. Washed with PBST for 3 times and add hVEGFA121-biotin or mVEGFA120-biotin (0.1 μg/ml) 100 al/well and incubated at RT for 1 hr. Plates were washed with PBST for 3 times, 100 al/well 5-fold serially diluted VHH-Fcs from 2 μg/ml was added. and incubate at RT for 1 hr. Plates were washed with PBST for 3 times and add 100 al goat anti-human Fc-HRP (Sigma, A0170) diluted 1/5000 in 1% BSA/PBST to each well and incubate at RT for 1 hr. Plates were then washed as before and add 100 al TMB substrate and incubate at RT for 15 min. 100 al per well stop solution was added to stop the reaction, and the plates were read with microplate reader at 450 nm.
Four VHHs (C2, C8, F6, D2) were selected for humanization. Proceed with plasmid construction and protein production as above, the humanized VHH-Fc was characterized with target-binding (ELISA) and RBA.

The target of assay [5] is T1, human transferrin (Sigma T3309). The experiment in a line: flow cytometry on HEK293F-hTfR1 cells with human transferrin, pH 7.4; grade by % binding (10% > + ≥ 5%). On the procedure: as §1

T1 sequence (P02787 20-698): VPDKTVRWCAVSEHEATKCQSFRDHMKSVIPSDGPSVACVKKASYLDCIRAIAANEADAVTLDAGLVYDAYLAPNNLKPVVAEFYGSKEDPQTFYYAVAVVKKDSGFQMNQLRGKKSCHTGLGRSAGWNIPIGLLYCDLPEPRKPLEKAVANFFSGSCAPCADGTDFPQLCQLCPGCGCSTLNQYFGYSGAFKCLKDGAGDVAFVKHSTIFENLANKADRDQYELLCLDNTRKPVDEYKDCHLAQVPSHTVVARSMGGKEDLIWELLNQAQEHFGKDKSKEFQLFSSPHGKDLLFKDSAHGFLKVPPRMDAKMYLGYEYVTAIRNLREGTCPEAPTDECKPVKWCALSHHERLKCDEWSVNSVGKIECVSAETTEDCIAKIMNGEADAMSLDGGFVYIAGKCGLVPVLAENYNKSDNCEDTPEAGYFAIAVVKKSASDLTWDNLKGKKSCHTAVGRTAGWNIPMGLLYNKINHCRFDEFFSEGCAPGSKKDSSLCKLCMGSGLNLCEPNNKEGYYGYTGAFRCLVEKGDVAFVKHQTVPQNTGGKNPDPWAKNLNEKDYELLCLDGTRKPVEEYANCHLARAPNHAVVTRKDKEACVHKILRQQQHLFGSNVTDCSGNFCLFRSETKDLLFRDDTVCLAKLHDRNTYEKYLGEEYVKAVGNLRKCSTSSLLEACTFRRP

B1: SLN0049 VHH-OVA-His (VHH)
chain: EVQLVESGGGSVQAGGSLRLSCAASRATNSRYSMGWFRQAPGKEREGVAAIDSIGRTSYADSVKGRFTISQDGAKNTLYLQMNSLKPEDTAMYYCAATAWRDWATLREYEYGYWGQGTQVTVSSGSIGAASMEFCFDVFKELKVHHANENIFYCPIAIMSALAMVYLGAKDSTRTQINKVVRFDKLPGFGDSIEAQCGTSVNVHSSLRDILNQITKPNDVYSFSLASRLYAEERYPILPEYLQCVKELYRGGLEPINFQTAADQARELINSWVESQTNGIIRNVLQPSSVDSQTAMVLVNAIVFKGLWEKAFKDEDTQAMPFRVTEQESKPVQMMYQIGLFRVASMASEKMKILELPFASGTMSMLVLLPDEVSGLEQLESIINFEKLTEWTSSNVMEERKIKVYLPRMKMEEKYNLTSVLMAMGITDVFSSSANLSGISSAESLKISQAVHAAHAEINEAGREVVGSAEAGVDAASVSEEFRADHPFLFCIKHIATNAVLFFGRCVSP
notes: Tested as recombinant VHH-OVA-His; not shown: His tag
B1: the “percent binding (flow cytometry, VHH/Tf on hTfR1-overexpressing cells, pH 6.0)” value in assay [1] was at least 15%. Also, the “percent binding (flow cytometry, VHH/Tf on hTfR1-overexpressing cells, pH 7.4)” value in assay [2] was at least 15%. Besides, the binding result in assay [3] is “no binding (tested: 10 µg/mL)”.

B2: SLN6062 humanized VHH-Fc (Fc fusion)
chain: EVQLVESGGGLVQPGGSLRLSCAASVYTASCMGWFRQAPGKGLELVSTLNRNSGRTSYVGSVKGRFTISQDNSKKTLYLQMNSLRAEDTAVYYCAATWSWYSFTCPGDQNAYIHWGQGTLVTVSS
notes: tested as VHH-Fc; also called C8-9; not shown: human IgG4 Fc (VHH-hIgG4 Fc fusion)
On to B2, for which the binding result in assay [4] is “binds”.

B3: SLN-6043 humanized VHH-Fc (Fc fusion)
chain: EVQLVESGGGVVQPGGSLRLSCAASGFTSDNCAVHWVRQAPGKGLEWVSSISSDDSTRYADSVKGRFTISRDNSKNSLYLQMNSLRTEDTALYYCQTKWPCTYRRGGSAYRPAVVWGQGTLVTVSS
notes: tested as VHH-Fc; also called F6-1; not shown: human IgG4 Fc (VHH-hIgG4 Fc fusion)
B3: in assay [4], the binding result is “binds”.

B4: SLN-6068 humanized VHH-Fc (Fc fusion)
chain: EVQLVESGGGLVQPGGSLRLSCAASVYTSSTYYMAWFRQAPGKGREGVAAAYAGGGGTVYADSVKGRFTISQDNSKNTLYLQMNSLRAEDTAVYYCAARMSRLLGMAPLLPEHYDSWGQGTLVTVSS
notes: tested as VHH-Fc; also called C2-11; not shown: human IgG4 Fc (VHH-hIgG4 Fc fusion)
As to B4, the binding result in assay [4] is recorded as “binds”.

B5: SLN0056 VHH-OVA-His (VHH)
chain: EVQLVESGGGSVQAGGSLRLSCRASGHAYGGNYMGWFRQAPGKEREGVAVLYTGGGSTYYADSVKGRFTISEDNAKNTVYLQMDSLKLEDTAMYYCALALGSARWYTSSLDARAYNIWGQGTQVTVSSGSIGAASMEFCFDVFKELKVHHANENIFYCPIAIMSALAMVYLGAKDSTRTQINKVVRFDKLPGFGDSIEAQCGTSVNVHSSLRDILNQITKPNDVYSFSLASRLYAEERYPILPEYLQCVKELYRGGLEPINFQTAADQARELINSWVESQTNGIIRNVLQPSSVDSQTAMVLVNAIVFKGLWEKAFKDEDTQAMPFRVTEQESKPVQMMYQIGLFRVASMASEKMKILELPFASGTMSMLVLLPDEVSGLEQLESIINFEKLTEWTSSNVMEERKIKVYLPRMKMEEKYNLTSVLMAMGITDVFSSSANLSGISSAESLKISQAVHAAHAEINEAGREVVGSAEAGVDAASVSEEFRADHPFLFCIKHIATNAVLFFGRCVSP
notes: as for B1
On to B5, for which the “percent binding (flow cytometry, VHH/Tf on hTfR1-overexpressing cells, pH 6.0)” value in assay [1] was at least 15%. The “percent binding (flow cytometry, VHH/Tf on hTfR1-overexpressing cells, pH 7.4)” value in assay [2] is at least 15%. Moreover, in assay [3], the binding result is “no binding (tested: 10 µg/mL)”.

B6: SLN0065 VHH-OVA-His (VHH)
chain: EVQLVESGGGSVQAGGSLRLSCLYTDSLFWMGWFRQTPGNEREGVAVTGRDGSTIYADSVQGRFTISRDNAKNTLYLQMNSLKPDDTAMYYCAADQTRYSSLRLLAPNRSASWGQGTQVTVSSGSIGAASMEFCFDVFKELKVHHANENIFYCPIAIMSALAMVYLGAKDSTRTQINKVVRFDKLPGFGDSIEAQCGTSVNVHSSLRDILNQITKPNDVYSFSLASRLYAEERYPILPEYLQCVKELYRGGLEPINFQTAADQARELINSWVESQTNGIIRNVLQPSSVDSQTAMVLVNAIVFKGLWEKAFKDEDTQAMPFRVTEQESKPVQMMYQIGLFRVASMASEKMKILELPFASGTMSMLVLLPDEVSGLEQLESIINFEKLTEWTSSNVMEERKIKVYLPRMKMEEKYNLTSVLMAMGITDVFSSSANLSGISSAESLKISQAVHAAHAEINEAGREVVGSAEAGVDAASVSEEFRADHPFLFCIKHIATNAVLFFGRCVSP
notes: as for B1
For B6, in assay [3], the binding result is given as “no binding (tested: 10 µg/mL)”. Also, in assay [5], the “percent binding (flow cytometry, VHH/Tf on hTfR1-overexpressing cells, pH 7.4)” value lay within 5 to 10%.

B7: SLN6065 humanized VHH-Fc (Fc fusion)
chain: EVQLVESGGGLVQPGGSLRLSCAASRDAYFNNYMAWFRQAPGKGLEGVSSIATNTGNDYYADSVKGRFTISRDNSKNTIYLQMNSLRAEDTAVYYCAAGWRGGSFWTPSKYSYWGQGTLVTVSS
notes: tested as VHH-Fc; also called D2-9; not shown: human IgG4 Fc (VHH-hIgG4 Fc fusion)
For B7, in assay [4], the binding result is reported as “binds”.

B8: SLN0071 VHH-OVA-His (VHH)
chain: EVQLVESGGGSVQAGGSLRLSCAGSEYTYSRCCMGWFRQAPGKEREGVVSINVLGGTSYADSVKGRFTISRDNAENTLYLQMNSLKPEDTAMYYCAAGLASAPWRPCGTTTEEYKYWGQGTQVTVSSGSIGAASMEFCFDVFKELKVHHANENIFYCPIAIMSALAMVYLGAKDSTRTQINKVVRFDKLPGFGDSIEAQCGTSVNVHSSLRDILNQITKPNDVYSFSLASRLYAEERYPILPEYLQCVKELYRGGLEPINFQTAADQARELINSWVESQTNGIIRNVLQPSSVDSQTAMVLVNAIVFKGLWEKAFKDEDTQAMPFRVTEQESKPVQMMYQIGLFRVASMASEKMKILELPFASGTMSMLVLLPDEVSGLEQLESIINFEKLTEWTSSNVMEERKIKVYLPRMKMEEKYNLTSVLMAMGITDVFSSSANLSGISSAESLKISQAVHAAHAEINEAGREVVGSAEAGVDAASVSEEFRADHPFLFCIKHIATNAVLFFGRCVSP
notes: as for B1
As to B8, the binding result in assay [3] was “no binding (tested: 10 µg/mL)”. For the same molecule, in assay [5], the “percent binding (flow cytometry, VHH/Tf on hTfR1-overexpressing cells, pH 7.4)” value lay in the range of 5 to 10%.

B9: SLN0044 VHH-OVA-His (VHH)
chain: DVQLVESGGGSVQAGGSLRLSCAASIYTYSTACMAWFRQAPGKEREGVAAIARYGDTTYTDSVKGRFTISRDVAKNILYLQMSSLKPEDTAMYYCASKSPNSGCDEYAHYETFGQGTQVTVSSGSIGAASMEFCFDVFKELKVHHANENIFYCPIAIMSALAMVYLGAKDSTRTQINKVVRFDKLPGFGDSIEAQCGTSVNVHSSLRDILNQITKPNDVYSFSLASRLYAEERYPILPEYLQCVKELYRGGLEPINFQTAADQARELINSWVESQTNGIIRNVLQPSSVDSQTAMVLVNAIVFKGLWEKAFKDEDTQAMPFRVTEQESKPVQMMYQIGLFRVASMASEKMKILELPFASGTMSMLVLLPDEVSGLEQLESIINFEKLTEWTSSNVMEERKIKVYLPRMKMEEKYNLTSVLMAMGITDVFSSSANLSGISSAESLKISQAVHAAHAEINEAGREVVGSAEAGVDAASVSEEFRADHPFLFCIKHIATNAVLFFGRCVSP
notes: as for B1
With B9, the “percent binding (flow cytometry, VHH/Tf on hTfR1-overexpressing cells, pH 6.0)” value in assay [1] is at least 15%. Further, the binding result in assay [3] was “no binding (tested: 10 µg/mL)”.

B10: SLN0072 VHH-OVA-His (VHH)
chain: EVQLVESGGGSVQAGGSLRLSCVASGYTGSSSYMGWFRQVPGKEREGVAQINSRSGSTYYADSVKGRFTISQDNAKNTVYLQMTSLKPEDTGMYYCAERFGPTFYPVPLGSNLYNYWGQGTQVTVSSGSIGAASMEFCFDVFKELKVHHANENIFYCPIAIMSALAMVYLGAKDSTRTQINKVVRFDKLPGFGDSIEAQCGTSVNVHSSLRDILNQITKPNDVYSFSLASRLYAEERYPILPEYLQCVKELYRGGLEPINFQTAADQARELINSWVESQTNGIIRNVLQPSSVDSQTAMVLVNAIVFKGLWEKAFKDEDTQAMPFRVTEQESKPVQMMYQIGLFRVASMASEKMKILELPFASGTMSMLVLLPDEVSGLEQLESIINFEKLTEWTSSNVMEERKIKVYLPRMKMEEKYNLTSVLMAMGITDVFSSSANLSGISSAESLKISQAVHAAHAEINEAGREVVGSAEAGVDAASVSEEFRADHPFLFCIKHIATNAVLFFGRCVSP
notes: as for B1
B10: the “percent binding (flow cytometry, VHH/Tf on hTfR1-overexpressing cells, pH 6.0)” value in assay [1] is at least 15%. In addition, the “percent binding (flow cytometry, VHH/Tf on hTfR1-overexpressing cells, pH 7.4)” value in assay [2] is at least 15%. For the same molecule, the binding result in assay [3] is reported as “no binding (tested: 10 µg/mL)”.
